Experimental data as given in patent US20210332133A1 (TENEOTWO, published 2021).
Positions count from the first letter of the chain named.

T1: human CD19 (human, UniProt P15391 20-291)
T1 construct: also called B-Lymphocyte Surface Antigen B4; recombinant CD19 extracellular domain
T1 sequence (looked up): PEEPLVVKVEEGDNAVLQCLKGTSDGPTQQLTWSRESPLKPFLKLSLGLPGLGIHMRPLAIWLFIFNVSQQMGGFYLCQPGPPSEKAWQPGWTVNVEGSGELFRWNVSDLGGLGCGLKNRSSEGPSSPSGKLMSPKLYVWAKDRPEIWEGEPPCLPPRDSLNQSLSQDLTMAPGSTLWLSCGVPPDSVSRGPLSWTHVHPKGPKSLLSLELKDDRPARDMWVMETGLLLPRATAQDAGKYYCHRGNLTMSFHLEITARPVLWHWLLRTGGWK

T2: human CD19 on CD19-positive cells (Daudi, Raji, Ramos; CD19+ tumor cell line) (human, UniProt P15391 20-556)
T2 construct: whole, on cells
T2 sequence (looked up): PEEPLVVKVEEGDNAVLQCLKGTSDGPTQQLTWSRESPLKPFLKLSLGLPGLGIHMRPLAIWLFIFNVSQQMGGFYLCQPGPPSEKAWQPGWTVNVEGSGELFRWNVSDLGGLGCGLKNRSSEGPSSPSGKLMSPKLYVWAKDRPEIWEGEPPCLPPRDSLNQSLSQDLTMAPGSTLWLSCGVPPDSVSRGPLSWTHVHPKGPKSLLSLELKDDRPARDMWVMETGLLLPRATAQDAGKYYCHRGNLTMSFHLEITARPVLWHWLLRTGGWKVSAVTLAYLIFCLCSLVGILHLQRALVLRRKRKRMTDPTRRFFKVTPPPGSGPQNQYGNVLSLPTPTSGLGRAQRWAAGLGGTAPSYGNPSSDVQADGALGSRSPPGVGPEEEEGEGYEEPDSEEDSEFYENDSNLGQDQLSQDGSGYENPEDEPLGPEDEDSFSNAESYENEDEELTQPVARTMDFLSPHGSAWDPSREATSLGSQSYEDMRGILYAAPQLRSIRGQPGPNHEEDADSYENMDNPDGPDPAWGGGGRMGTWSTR

B1: SEQ ID NO 21 (antibody, V domains shown)
VH: EVQLVESGGGLVQPGGSLRLSCVASGFTFSSYWMSWVRQAPGKGLEWVANIKQDGSEKEYVDSVKGRFTISRDNAKNSLYLQMNSLRAEDTAVYYCASGVYSFDYRGQGTLVTVSS
notes: Heavy chain-only antibody (UniAb, human IgG, no light chain, no CH1)
B2: SEQ ID NO 14 (antibody, V domains shown)
VH: B1 VH with V23A, S31N, L45Q, N50T, K52N, E57D, E59D, N77K
notes: as for B1
B3: SEQ ID NO 15 (antibody, V domains shown)
VH: B1 VH with V12A, V23A, Y32F, N50T, I51M, K52N, E59D, R87T
notes: as for B1
B4: SEQ ID NO 16 (antibody, V domains shown)
VH: B1 VH with L11M, V23A, N50T, K52N, E59D, N77K, Y80L
notes: as for B1
B5: SEQ ID NO 17 (antibody, V domains shown)
VH: B1 VH with V23A, T28S, S31D, Y32F, N50T, K52S, D54A, E59D, N77K
notes: as for B1
B6: SEQ ID NO 18 (antibody, V domains shown)
VH: B1 VH with Q13K, V23E, N50H, E59Y
notes: as for B1
B7: SEQ ID NO 19 (antibody, V domains shown)
VH: B1 VH with S31D, K52N, Q53K, D54A, K58E, E59F, N84D
notes: as for B1
B8: SEQ ID NO 20 (antibody, V domains shown)
VH: B1 VH with R19T, S31D, W33Y, V37I, E59F, A75P, N84D, A88V
notes: as for B1

Tests used:
human CD19 = target: T1, human CD19; assay: ELISA on recombinant CD19 extracellular domain and/or cell-binding assay
[1] = target: T2, human CD19 on CD19-positive cells …; assay: cell binding, flow cytometry
Procedure: Binding to CD19 positive cells was assessed by flow cytometry (Guava easyCyte 8HT, EMD Millipore) using the Daudi cell line (ATCC). Briefly, 100,000 target cells were stained with a dilution series of purified UniAbs™ for 30 minutes at 4° C. Following incubation, the cells were washed twice with flow cytometry buffer (1X PBS, 1% BSA, 0.1% NaN₃) and stained with goat F(ab′)2 anti-human IgG conjugated to R-phycoerythrin (PE) (Southern Biotech, cat. #2042-09) to detect cell-bound antibodies. After a 20-minute incubation at 4° C., the cells were washed twice with flow cytometry buffer and then mean fluorescence intensity (MFI) was measured by flow cytometry. EC50 values were calculated using GraphPad Prism 7. Binding to cynomolgus CD19 positive cells was determined using the same protocol with the following modifications: the target cells were from CHO cells stably transfected to express the extracellular domain of cynomolgus CD19 and each antibody was tested at a single concentration (˜1.7 μg/mL) so EC50 values were not calculated.

| Binder | binding result (human CD19) | binding result [1] |
| --- | --- | --- |
| B1 | binds | binds |
| B2 | binds | binds |
| B3 | binds | binds |
| B4 | binds | binds |
| B5 | binds | binds |
| B6 | binds | binds |
| B7 | binds | binds |
| B8 | binds | binds |
